Legend:
Conditions in all cases: glycan lost; control: wild type
[1] = cell surface biotinylation, streptavidin pulldown, HeLa
[2] = anti-FLAG surface immunofluorescence, non-permeabilised HeLa
[3] = co-immunostaining with ER marker HA-PDIA4

Row | Substance | localisation_or_trafficking, percent_of_wt [1] | localisation_or_trafficking, percent_of_wt [2] | localisation_or_trafficking [3]
1 | Neuronal growth regulator 1 (NEGR1): 1MT (N307Q) | no change | – | –
2 | Neuronal growth regulator 1 (NEGR1): N73Q | – | no change | –
3 | Neuronal growth regulator 1 (NEGR1): N73Q/N155Q | abolishes | abolishes | changes
4 | Neuronal growth regulator 1 (NEGR1): N155Q | – | no change | –
5 | Neuronal growth regulator 1 (NEGR1): N275Q | – | no change | –
6 | Neuronal growth regulator 1 (NEGR1): N286Q | – | no change | –
7 | Neuronal growth regulator 1 (NEGR1): N294Q | – | no change | –
8 | Neuronal growth regulator 1 (NEGR1): N307Q | – | no change | –

Reference: PMC8997467
